Results on 1 substance are retold here after US20080176285.

The target of one series is RNAse B (UniProt P61823).
A further series concerns the target porcine uteroferrin (UniProt P09889).
Sequence of UniProt P09889 (P09889 22-340): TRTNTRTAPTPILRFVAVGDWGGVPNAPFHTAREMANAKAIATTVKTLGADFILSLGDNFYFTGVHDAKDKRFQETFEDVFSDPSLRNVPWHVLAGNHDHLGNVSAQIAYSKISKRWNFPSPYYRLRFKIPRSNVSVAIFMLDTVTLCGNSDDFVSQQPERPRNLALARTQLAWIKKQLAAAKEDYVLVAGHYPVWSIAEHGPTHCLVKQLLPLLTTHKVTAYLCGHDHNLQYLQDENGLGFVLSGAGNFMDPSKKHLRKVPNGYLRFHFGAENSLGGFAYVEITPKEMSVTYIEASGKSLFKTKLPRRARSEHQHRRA

Sequence of UniProt P61823 (P61823 27-150): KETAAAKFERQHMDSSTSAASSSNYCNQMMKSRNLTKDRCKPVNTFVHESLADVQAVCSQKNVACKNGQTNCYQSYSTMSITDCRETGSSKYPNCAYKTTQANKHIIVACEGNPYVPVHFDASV

Regarding “bovine GlcNAc-phosphotransferase (UDP-N-acetylglucosamine: lysosomal enzyme N-acetylglucosamine-1-phosphotransferase)”, the “Km as acceptor for the transfer of GlcNAc-1-P” value with RNAse B is “the Km was not reached at the solubility limit of the protein (at 600 µM)”; in the series with porcine uteroferrin it was “Kms below 20 µM”; with cathepsin D it was “Kms below 20 µM”.
